Source: paper PMC6640053

System: Lrp (C-terminal His6 as stated; cloned NdeI/XhoI in pET28a) (Escherichia coli K-12 (strain FW102 genomic DNA))
Test: EMSA
Conditions: no effector; apparent overall Kd; four complexes B1-B4; 10 mM Tris-HCl pH 7.4, 5 mM MgCl2, 250 mM KCl, 2.5 mM CaCl2, 0.5 mM DTT, 2.5% glycerol, 37 C 25 min; L-Arg and/or L-Leu when indicated; excess sonicated …

artP control region
Kd: 200 nM
